In the Human Domainome abundance scans (Beltran et al. 2025):

B1: Intersectin-2, residues 1129 to 1183; numbered along this chain, Q9NZM3 (parent)
chain: VCQVIAMYDYAANNEDELSFSKGQLINVMNKDDPDWWQGEINGVTGLFPSNYVKM
B2: Zinc finger homeobox protein 3, residues 2147 to 2202; numbered along this chain, Q15911 (parent)
chain: RPRTRITDDQLRVLRQYFDINNSPSEEQIKEMADKSGLPQKVIKHWFRNTLFKERQ

Variants of: B1
Test: abundance fitness (aPCA) (normalised: wild type 0, dead -1); higher = more abundant; growth selection in yeast, the domain comes from the species named
Conditions: Homo sapiens

Abundance fitness: each site, then its substitutions
P49: R 0.017 | L -0.143 | D -0.482 | K -0.017 | Q -0.129 | T -0.746 | F -0.358 | Y -0.104 | E -0.442 | V -0.782 | A -0.193 | N -0.106 | H -0.1 | I -0.49 | S -0.195 | M -0.086
M55: R -0.088 | E 0.009 | Q -0.09 | L -0.095 | T -0.06 | K -0.233 | V -0.103 | S 0.007 | G -0.097 | A 0.079 | W -0.255
G43: W -0.404 | P -0.908 | I -0.865 | K 0.029 | E -0.032 | A -0.044 | Q -0.202 | D -0.044 | L -0.175 | V -0.765 | R -0.069 | T -0.128 | Y -0.237 | S -0.024 | M -0.08 | H -0.025
N42: T -0.01 | A -0.013 | S -0.021 | D -0.16 | H 0 | G -0.042 | I -0.196 | R -0.054 | C 0.014 | F -0.126 | Y -0.082 | M -0.046 | E 0 | W -0.148 | K -0.093 | Q -0.084 | P -0.473 | L -0.068 | V -0.1
V53: A -0.071 | R -0.703 | G -0.116 | P -0.905 | W -1.11 | E -0.666 | H -0.477 | Q -0.564 | I 0.065 | T 0.03 | M -0.379 | L -0.623 | C -0.054 | K -0.902
V44: R -0.055 | Q -0.083 | T -0.052 | H 0.028 | A -0.006 | S -0.046 | M -0.169 | D -0.117 | F -0.098 | C -0.023 | P -0.438 | E -0.108 | Y -0.101 | K -0.056 | I 0.027 | G 0.001 | L -0.033 | W -0.151 | N -0.049
K54: E -0.032 | I -0.123 | H -0.068 | Y -0.104 | L -0.177 | F -0.148 | M -0.154 | D -0.05 | C -0.12 | Q -0.049 | G -0.172 | S -0.055 | P -0.507 | W -0.388 | V -0.161 | R 0.099 | T 0.014 | N -0.08 | A -0.119
Y52: G -0.122 | T -0.065 | H 0.009 | M -0.002 | D -0.575 | C -0.042 | W -0.139 | I -0.023 | N -0.107 | F 0.15 | P -0.544 | L 0.037 | K 0.082 | E -0.192 | R -0.019 | S -0.066
E40: W -0.15 | Y -0.176
S50: P -0.015 | M 0.004 | W -0.399 | N -0.1 | A -0.046 | L -0.166 | Q -0.037 | T -0.084 | I -0.084 | Y -0.128 | E -0.266 | K -0.074 | D -0.98 | G -0.109 | C -0.139
G46: R -0.318 | I -1.14 | D -0.799 | A -0.137 | C -0.606 | L -0.701 | K -0.1 | S -0.764 | F -0.864 | W -0.92 | H -1.05 | P -1.01 | Q -0.945 | E -0.973 | M -1.06 | N -0.483 | Y -0.807 | T -0.788
F48: D -0.806 | V -0.027 | M -0.092 | C -0.199 | P -0.718 | L 0 | S -0.775 | Y -0.898 | A -0.69 | W -1 | G -0.945 | T -0.85 | N -1.17 | K -1 | I -0.085 | Q -0.778 | H -0.937 | E -0.834
N51: M -0.071 | T -0.034 | C -0.044 | E -0.154 | A -0.075 | L -0.149 | Y -0.067 | G -0.021 | D -0.005 | I -0.077 | F -0.141 | S -0.02 | P -0.038 | Q -0.081 | W -0.121 | H -0.025 | R -0.026
I41: M -0.032 | H 0.022 | F 0.079 | V -0.055 | E -0.478 | D -0.624 | L -0.012 | P -1.01 | S -0.038 | R -0.028 | A 0.016 | Q -0.085 | K -0.094 | T -0.017 | C -0.148 | N -0.159
T45: A -0.044 | M -0.145 | W -0.153 | R -0.076 | I -0.103 | D -0.1 | E -0.053 | G -0.042 | P -0.083 | N -0.062 | C -0.087 | K -0.03 | L -0.031 | S -0.003 | F -0.051 | Q -0.024 | V -0.092
L47: Y -0.04 | I -0.183 | M -0.128 | Q -0.019 | T -0.014 | W -0.061 | D -0.142 | A -0.007 | C -0.185 | K 0.039 | P -0.257 | N -0.086 | H -0.061 | S -0.011 | G -0.023

Variants of: B2
Test: as above
Conditions: Homo sapiens

Abundance fitness, by site and new letter:
R5: K 0.093 | D 0.235 | H 0.074 | V 0.129 | P 0.127 | C 0.076 | Q -0.027 | A -0.051 | I 0.148 | S 0.088 | F 0.08 | L 0.143 | T 0.137 | N 0.201 | G -0.023 | M 0.138 | E 0.155 | W -0.054
R3: G 0.143 | K -0.25 | C -0.426 | F -0.275 | S 0.034 | D 0.215 | Q -0.062 | T 0.197 | N 0.016 | L -0.014 | Y -0.085 | E 0.184 | W -0.57 | P -0.108 | H 0.172 | V 0.006 | M 0.293
P2: C -0.608 | T 0.279 | G -0.005 | R 0.127 | I 0.105 | N 0.28 | H 0.012 | S 0.102 | Q 0.215 | M 0.171 | V 0.018 | A -0.134 | Y -0.057 | L 0.086 | W -0.679 | E 0.184 | D 0.38
R1: L -0.303 | P -0.165 | C -0.134 | S -0.399 | W -0.979 | E -0.832 | G -0.247 | A -0.652 | F -0.385 | N 0.078 | T -0.271 | Y 0.022 | I -0.433 | M -0.573
I6: E -0.408 | D -0.484 | F -0.052 | C -0.4 | G -0.48
T4: W -1.13 | N 0.134 | K -0.16 | Y -0.005 | L -0.11 | P -0.159 | I -0.02 | H -0.549 | G -0.256 | S -0.191 | F 0.125 | R -0.393 | M 0.13 | D 0.029 | V -0.13
